“And” between values parts separate entries of the source, which are not always exact repeats. Equal values may be shown once.
Experiments:
Experiment in all cases: cryo-EM structure
Details in all cases: both partners purified
[1] = biological target: T1, cleaved H7 NL HA (HA1/HA2), A/Netherlands/219/2003, ectodomain trimer (influenza A virus …, UniProt Q6VMK1)
T1 construct: copies: 3 + 3

[2] = biological target: uncleaved H7 NY HA (HA0), A/New York/107/2003, ectodomain trimer (influenza A virus (A/New York/107/2003))
[3] = biological target: T2, cleaved H7 Sh2 HA (HA1/HA2), A/Shanghai/2/2013, ectodomain trimer (influenza A virus (A/Shanghai/2/2013))
T2 construct: copies: 3 + 3

B1: H7.5 Fab (papain digest of H7.5 IgG) (Fab, V domains shown)
VH: QVQLVQSGAEVKKPGASVKVSCKASGYTLTRYYFHWVRQAPGQGFEWMGIINPNGGGTSYAQKFGDRVIMTSDMSTSTIYMELSSLRSEDTAVYYCARDMPYYHDSGGPLFDLWGQGTLVTVSS
VL: EIVMTQSPSSLSASVGDRVTITCRPSQSISTFLNWYEQKPGKAPKLLIYDASSLQSGVPSRFSGSGSGTEFTLTISSLQPEDFATYYCQQSFSTPYTFGQGTRLEIK
stoichiometry N [1]: 3 Fabs per trimer and 2 Fabs per trimer
stoichiometry N [2]: 3 Fabs per trimer
stoichiometry N [3]: 3 Fabs per trimer
